Results from patent US20200157223A1 (SHANGHAI JMT BIO TECHNOLOGY, published 2020).
One block for each binder: values may come before it.

Legend:
[1] = target: T1, CD47-His (12283-H08H-200, Sino Biological) (human, UniProt Q08722 19-139); assay: ELISA on coated CD47-His
T1 construct: Bought protein coated on ELISA plates; also called CD47 antigen; human CD47 (protein level); not shown: His tag

[2] = target: T2, CD47 on the cell surface (A431, Raji, SKBR-3, NCI-H441, NK92MI-CD16a cells) (human, UniProt Q08722 19-323); assay: flow cytometry on Raji cells
T2 construct: whole, on cells; also called CD47 antigen; human CD47 (cellular level)

[3] = target: T2, CD47 on the cell surface (A431, Raji, …); assay: flow cytometry on IFN-γ-stimulated NCI-H441 cells
[4] = target: T2, CD47 on the cell surface (A431, Raji, …); assay: flow cytometry on NCI-H441 cells
[5] = target: T2, CD47 on the cell surface (A431, Raji, …); assay: flow cytometry on SKBR-3 cells
[6] = target: T2, CD47 on the cell surface (A431, Raji, …); assay: flow cytometry on A431 cells
[7] = target: T2, CD47 on the cell surface (A431, Raji, …); assay: cell-based or functional assay
[8] = target: T2, CD47 on the cell surface (A431, Raji, …); assay: flow cytometry on A431 cells (no CD20)

B1: Anti-CD47 mAb (Hu5F9-G4) (antibody, human IgG4 S228P, kappa)
heavy: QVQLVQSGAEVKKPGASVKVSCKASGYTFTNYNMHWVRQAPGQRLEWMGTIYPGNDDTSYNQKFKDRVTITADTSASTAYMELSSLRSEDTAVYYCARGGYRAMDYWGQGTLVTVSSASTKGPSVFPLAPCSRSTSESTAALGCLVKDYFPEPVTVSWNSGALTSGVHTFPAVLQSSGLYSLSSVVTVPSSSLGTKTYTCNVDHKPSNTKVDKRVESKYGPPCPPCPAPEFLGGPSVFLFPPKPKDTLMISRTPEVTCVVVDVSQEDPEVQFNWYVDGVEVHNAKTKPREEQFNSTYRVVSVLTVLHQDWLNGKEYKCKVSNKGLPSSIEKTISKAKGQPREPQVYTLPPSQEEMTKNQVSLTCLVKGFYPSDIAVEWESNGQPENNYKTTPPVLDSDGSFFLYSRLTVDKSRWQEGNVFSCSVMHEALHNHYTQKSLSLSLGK
light: DIVMTQSPLSLPVTPGEPASISCRSSQSIVYSNGNTYLGWYLQKPGQSPQLLIYKVSNRFSGVPDRFSGSGSGTDFTLKISRVEAEDVGVYYCFQGSHVPYTFGQGTKLEIKRTVAAPSVFIFPPSDEQLKSGTASVVCLLNNFYPREAKVQWKVDNALQSGNSQESVTEQDSKDSTYSLSSTLTLSKADYEKHKVYACEVTHQGLSSPVTKSFNRGEC
notes: also called anti-CD47 antibody; Hu5F9-64
- EC50 [1]: 0.00544 µg/mL
- EC50 [2]: 0.258 nM
- EC50 [3]: 0.387 nM
- EC50 [4]: 0.286 nM
- Maximum average fluorescence intensity [4]: 120000
- EC50 [5]: 0.456 nM
- EC50 [6]: 0.865 nM

B2: Anti-EGFR-Fc1-D1-Fc2 (bispecific antibody, human IgG1, kappa)
heavy: not shown
light: EIVLTQSPDFQSVTPKEKVTITCRASQSIGTNIHWYQQKPDQSPKLLIKYASESISGIPSRFSGSGSGTDFTLTINSLEAEDAATYYCQQNNEWPTSFGQGTKLEIKRTVAAPSVFIFPPSDEQLKSGTASVVCLLNNFYPREAKVQWKVDNALQSGNSQESVTEQDSKDSTYSLSSTLTLSKADYEKHKVYACEVTHQGLSSPVTKSFNRGEC
chain: not shown
notes: Knobs-into-holes heterodimer; left arm is the JMT101 half antibody; also called Anti-EGFR-Fc1-D1-Fe2
- EC50 [1]: 0.0939 µg/mL
- toxic side effects caused by NK cells (ADCC on NK92MI-CD16a cells), reduction against the D1^m proteins [7]: ≥ 1000 fold

B3: Anti-EGFR-Fc1-D1^m-D2-Fc2 (bispecific antibody, human IgG1, kappa)
heavy: not shown
light: EIVLTQSPDFQSVTPKEKVTITCRASQSIGTNIHWYQQKPDQSPKLLIKYASESISGIPSRFSGSGSGTDFTLTINSLEAEDAATYYCQQNNEWPTSFGQGTKLEIKRTVAAPSVFIFPPSDEQLKSGTASVVCLLNNFYPREAKVQWKVDNALQSGNSQESVTEQDSKDSTYSLSSTLTLSKADYEKHKVYACEVTHQGLSSPVTKSFNRGEC
chain: not shown
notes: Knobs-into-holes heterodimer
- binding result [1]: binds

B4: Anti-EGFR-Fc1-D1-D2-Fc2 (bispecific antibody, human IgG1, kappa)
heavy: not shown
light: EIVLTQSPDFQSVTPKEKVTITCRASQSIGTNIHWYQQKPDQSPKLLIKYASESISGIPSRFSGSGSGTDFTLTINSLEAEDAATYYCQQNNEWPTSFGQGTKLEIKRTVAAPSVFIFPPSDEQLKSGTASVVCLLNNFYPREAKVQWKVDNALQSGNSQESVTEQDSKDSTYSLSSTLTLSKADYEKHKVYACEVTHQGLSSPVTKSFNRGEC
chain: not shown
- toxic side effects caused by NK cells (ADCC on NK92MI-CD16a cells), reduction against the D1^m proteins [7]: ≥ 1000 fold

B5: Anti-EGFR-Fc1-D1-D2-D3-Fc2 (bispecific antibody, human IgG1, kappa)
heavy: not shown
light: EIVLTQSPDFQSVTPKEKVTITCRASQSIGTNIHWYQQKPDQSPKLLIKYASESISGIPSRFSGSGSGTDFTLTINSLEAEDAATYYCQQNNEWPTSFGQGTKLEIKRTVAAPSVFIFPPSDEQLKSGTASVVCLLNNFYPREAKVQWKVDNALQSGNSQESVTEQDSKDSTYSLSSTLTLSKADYEKHKVYACEVTHQGLSSPVTKSFNRGEC
chain: not shown
- toxic side effects caused by NK cells (ADCC on NK92MI-CD16a cells), reduction against the D1^m proteins [7]: ≥ 1000 fold

B7: Obi-Fc1-D1-Fc2 (bispecific antibody)
heavy: not shown
light: DIVMTQTPLSLPVTPGEPASISCRSSKSLLHSNGITYLYWYLQKPGQSPQLLIYQMSNLVSGVPDRFSGSGSGTDFTLKISRVEAEDVGVYYCAQNLELPYTFGGGTKVEIKRTVAAPSVFIFPPSDEQLKSGTASVVCLLNNFYPREAKVQWKVDNALQSGNSQESVTEQDSKDSTYSLSSTLTLSKADYEKHKVYACEVTHQGLSSPVTKSFNRGEC
chain: not shown
- toxic side effects caused by NK cells (ADCC on NK92MI-CD16a cells), reduction against the D1^m proteins [7]: ≥ 1000 fold

B9: Obi-Fc1-D1-D2-Fc2 (bispecific antibody)
heavy: not shown
light: DIVMTQTPLSLPVTPGEPASISCRSSKSLLHSNGITYLYWYLQKPGQSPQLLIYQMSNLVSGVPDRFSGSGSGTDFTLKISRVEAEDVGVYYCAQNLELPYTFGGGTKVEIKRTVAAPSVFIFPPSDEQLKSGTASVVCLLNNFYPREAKVQWKVDNALQSGNSQESVTEQDSKDSTYSLSSTLTLSKADYEKHKVYACEVTHQGLSSPVTKSFNRGEC
chain: not shown
- toxic side effects caused by NK cells (ADCC on NK92MI-CD16a cells), reduction against the D1^m proteins [7]: ≥ 1000 fold

B10: Obi-Fc1-D1-D2-D3-Fc2 (bispecific antibody)
heavy: not shown
light: DIVMTQTPLSLPVTPGEPASISCRSSKSLLHSNGITYLYWYLQKPGQSPQLLIYQMSNLVSGVPDRFSGSGSGTDFTLKISRVEAEDVGVYYCAQNLELPYTFGGGTKVEIKRTVAAPSVFIFPPSDEQLKSGTASVVCLLNNFYPREAKVQWKVDNALQSGNSQESVTEQDSKDSTYSLSSTLTLSKADYEKHKVYACEVTHQGLSSPVTKSFNRGEC
chain: not shown
- toxic side effects caused by NK cells (ADCC on NK92MI-CD16a cells), reduction against the D1^m proteins [7]: ≥ 1000 fold

The remaining lines, values ahead:

- binding result [1]: binds
B6: Anti-EGFR-Fc1-D1^m-Fc2 (bispecific antibody, human IgG1, kappa)
heavy: not shown
light: EIVLTQSPDFQSVTPKEKVTITCRASQSIGTNIHWYQQKPDQSPKLLIKYASESISGIPSRFSGSGSGTDFTLTINSLEAEDAATYYCQQNNEWPTSFGQGTKLEIKRTVAAPSVFIFPPSDEQLKSGTASVVCLLNNFYPREAKVQWKVDNALQSGNSQESVTEQDSKDSTYSLSSTLTLSKADYEKHKVYACEVTHQGLSSPVTKSFNRGEC
chain: not shown
notes: Knobs-into-holes heterodimer

- binding result [8]: no binding
B8: Anti-CD20 mAb (Obinutuzumab) (antibody, human IgG1, kappa)
heavy: not shown
light: DIVMTQTPLSLPVTPGEPASISCRSSKSLLHSNGITYLYWYLQKPGQSPQLLIYQMSNLVSGVPDRFSGSGSGTDFTLKISRVEAEDVGVYYCAQNLELPYTFGGGTKVEIKRTVAAPSVFIFPPSDEQLKSGTASVVCLLNNFYPREAKVQWKVDNALQSGNSQESVTEQDSKDSTYSLSSTLTLSKADYEKHKVYACEVTHQGLSSPVTKSFNRGEC
notes: also called Anti-CD20 (Obinutuzumab)

- binding result [1]: no binding
B11: Anti-EGFR mAb (JMT101) (antibody, human IgG1, kappa, V domains shown)
VH: QVQLQESGPGLVKPSETLSLTCTVSGFSLSNYDVHWVRQAPGKGLEWLGVIWSGGNTDYNTPFTSRLTISVDTSKNQFSLKLSSVTAADTAVYYCARALDYYDYEFAYWGQGTLVTVSS
VL: EIVLTQSPDFQSVTPKEKVTITCRASQSIGTNIHWYQQKPDQSPKLLIKYASESISGIPSRFSGSGSGTDFTLTINSLEAEDAATYYCQQNNEWPTSFGQGTKLEIKR
notes: Humanized anti-EGFR monoclonal antibody

- binding result [1]: no binding
- Maximum average fluorescence intensity [4]: 3500
- binding result [8]: no binding
B12: Anti-CD20 mAb (Ofatumumab) (antibody, human IgG1, kappa)
heavy: not shown
light: not shown
notes: also called Anti-CD20 (Ofatumumab)
